Legend:
[1] = target: T1, EGFR on human cancer cells A549, MCF-7 and DU145 (Homo sapiens, UniProt P00533); experiment: flow cytometry on cells; live cells (A549, MCF-7, DU145) in ice-cold PBS with BSA incubated with purified sdAbs; detected with protein A-FITC; conditions: one partner purified
T1 construct: Epidermal growth factor receptor (EGFR, HER1, ERBB1), endogenous on the surface of human cancer cell lines; also called HER1; ERBB1; source: endogenous, on live A549, MCF-7 and DU145 cells

[2] = target: T2, EGFR complete extracellular domain protein (Homo sapiens (assumed), UniProt P00533); experiment: far-Western, overlay or dot blot; Western blotting: 0.5 ug EGFR complete extracellular domain separated by SDS-PAGE, transferred to PVDF; blot incubated with the sdAbs, then protein A-HRP, chemiluminescence; conditions: both partners purified
T2 construct: Epidermal growth factor receptor (EGFR, HER1, ERBB1), complete extracellular domain, bought; also called EGFR complete extracellular fragment; EGFR-ECD; source: bought: Shanghai Bootech BioSci. and Technol

EndoF1 [3] = target: T3, EndoF1 (Elizabethkingia meningoseptica (assumed), UniProt P36911); experiment: ELISA; wells of 96-well plates coated with EGFR protein fragment or unrelated antigens; purified sdAbs added; protein A-HRP, TMB, absorbance at 450 nm; conditions: both partners purified
T3 construct: EndoF1, unrelated antigen used as negative control

BMP2 [4] = target: T4, BMP2 (Homo sapiens (assumed), UniProt P12643); experiment: as above; conditions: both partners purified
T4 construct: BMP2, unrelated antigen used as negative control

FGF21 [5] = target: T5, FGF21 (Homo sapiens (assumed), UniProt Q9NSA1); experiment: as above; conditions: both partners purified
T5 construct: FGF21, unrelated antigen used as negative control

EndoF1 [6] = target: T3, EndoF1; experiment: ELISA; monoclonal phage ELISA: wells of 96-well plates coated with EGFR protein fragment or unrelated antigens, blocked with 2% BSA; phage clones added; anti-M13-HRP, TMB, absorbance at 450 nm; conditions: one partner purified
BMP2 [7] = target: T4, BMP2; experiment: as above; conditions: one partner purified
FGF21 [8] = target: T5, FGF21; experiment: as above; conditions: one partner purified

T4 sequence (P12643 24-396): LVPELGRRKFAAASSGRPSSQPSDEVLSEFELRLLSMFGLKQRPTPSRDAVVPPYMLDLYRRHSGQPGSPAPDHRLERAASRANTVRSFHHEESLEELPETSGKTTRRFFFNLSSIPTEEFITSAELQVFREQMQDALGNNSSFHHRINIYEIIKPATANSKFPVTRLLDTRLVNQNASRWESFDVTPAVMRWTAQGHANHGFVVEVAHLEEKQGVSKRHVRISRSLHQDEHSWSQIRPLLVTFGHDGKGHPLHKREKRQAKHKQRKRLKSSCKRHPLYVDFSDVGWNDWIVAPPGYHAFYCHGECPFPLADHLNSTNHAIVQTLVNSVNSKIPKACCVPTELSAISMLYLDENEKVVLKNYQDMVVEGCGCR
T3 sequence (P36911 51-339): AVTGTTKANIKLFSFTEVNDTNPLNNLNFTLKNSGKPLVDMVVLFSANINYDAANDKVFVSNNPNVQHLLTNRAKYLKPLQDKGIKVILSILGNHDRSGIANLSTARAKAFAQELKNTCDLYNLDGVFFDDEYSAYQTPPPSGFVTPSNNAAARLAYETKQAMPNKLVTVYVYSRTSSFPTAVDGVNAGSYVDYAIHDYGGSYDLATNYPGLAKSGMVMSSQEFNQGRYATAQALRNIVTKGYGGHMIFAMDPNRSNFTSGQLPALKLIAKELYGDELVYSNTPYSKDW
T5 sequence (Q9NSA1 29-209): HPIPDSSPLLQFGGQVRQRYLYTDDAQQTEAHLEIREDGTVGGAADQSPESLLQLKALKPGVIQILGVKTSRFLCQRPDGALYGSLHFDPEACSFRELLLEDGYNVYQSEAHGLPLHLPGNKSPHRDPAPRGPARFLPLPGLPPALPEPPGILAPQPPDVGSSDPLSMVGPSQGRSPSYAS

Binder | binding result [1] | binding result [2] | binding result (EndoF1 [3]) | binding result (BMP2 [4]) | binding result (FGF21 [5]) | binding result (EndoF1 [6]) | binding result (BMP2 [7]) | binding result (FGF21 [8])
anti-EGFR single-domain antibody aEG2E12 (purified) (VHH, fully human VH domain on the V3-23/D47 framework with diversified CDR1-3; Fully human VH-only single-domain antibody (about 15 kDa), selected from the Source BioScience human domain antibody library; subcloned NcoI/NotI into pET22b(+); also called anti-EGFR sdAb; source: E. coli BL21 (DE3), pET22b(+), purified (Ni-NTA)) VHH: QVQLLESGGGLVQPGGSLRLSCAASGYSSNNEFMAWVRQAPGKGLEWVSAISTRNGSTYYADSVKGRFTISRDNSKNTLYLQMNSLRAEDTAVYYCAGVSYRRPQQLKYWGQGTLVTVSS | binds | binds | no binding | no binding | no binding |  |  | 
aEG2E12 displayed on phage (phage clone) (VHH, detected by anti-M13-HRP; source: E. coli TG1, phagemid pR2, rescued with M13 helper phage, phage clone) VHH: QVQLLESGGGLVQPGGSLRLSCAASGYSSNNEFMAWVRQAPGKGLEWVSAISTRNGSTYYADSVKGRFTISRDNSKNTLYLQMNSLRAEDTAVYYCAGVSYRRPQQLKYWGQGTLVTVSS |  |  |  |  |  | no binding | no binding | no binding
anti-EGFR single-domain antibody aEG2C7 (purified) (VHH, fully human VH domain on the V3-23/D47 framework with diversified CDR1-3; Fully human VH-only single-domain antibody (about 15 kDa), selected from the Source BioScience human domain antibody library; subcloned NcoI/NotI into pET22b(+); also called anti-EGFR sdAb; source: E. coli BL21 (DE3), pET22b(+), purified (Ni-NTA)) VHH: QVQLLESGGGLVQPGGSLRLSCAASGFTFNNEIMAWVRQAPGKGLEWVSSIAANNGSTYYADSVKGRFTISRDNSKNTLYLQMNSLRAEDTAVYYCARYAAEPHTYSMGNKSLRYWGQGTLVTVSS | binds | binds | no binding | no binding | no binding |  |  | 
aEG2C7 displayed on phage (phage clone) (VHH, detected by anti-M13-HRP; source: E. coli TG1, phagemid pR2, rescued with M13 helper phage, phage clone) VHH: QVQLLESGGGLVQPGGSLRLSCAASGFTFNNEIMAWVRQAPGKGLEWVSSIAANNGSTYYADSVKGRFTISRDNSKNTLYLQMNSLRAEDTAVYYCARYAAEPHTYSMGNKSLRYWGQGTLVTVSS |  |  |  |  |  | no binding | no binding | no binding
anti-EGFR single-domain antibody aEG6B2 (purified) (VHH, fully human VH domain on the V3-23/D47 framework with diversified CDR1-3; Fully human VH-only single-domain antibody (about 15 kDa), selected from the Source BioScience human domain antibody library; subcloned NcoI/NotI into pET22b(+); also called anti-EGFR sdAb; source: E. coli BL21 (DE3), pET22b(+), purified (Ni-NTA)) VHH: QVQLLESGGGLVQPGGSLRLSCAASGFNVNPKYMTWVRQAPGKGLEWVSSIRSPGGSTYYADSVKGRFTISRDNSKNTLYLQMNSLRAEDTAVYYCASVSRDEKYMRFWGQGTLVTVSS | binds | binds | no binding | no binding | no binding |  |  | 
aEG6B2 displayed on phage (phage clone) (VHH, detected by anti-M13-HRP; source: E. coli TG1, phagemid pR2, rescued with M13 helper phage, phage clone) VHH: QVQLLESGGGLVQPGGSLRLSCAASGFNVNPKYMTWVRQAPGKGLEWVSSIRSPGGSTYYADSVKGRFTISRDNSKNTLYLQMNSLRAEDTAVYYCASVSRDEKYMRFWGQGTLVTVSS |  |  |  |  |  | no binding | no binding | no binding
anti-EGFR single-domain antibody aEG1B4 (purified) (VHH, fully human VH domain on the V3-23/D47 framework with diversified CDR1-3; Fully human VH-only single-domain antibody (about 15 kDa), selected from the Source BioScience human domain antibody library; subcloned NcoI/NotI into pET22b(+); also called anti-EGFR sdAb; source: E. coli BL21 (DE3), pET22b(+), purified (Ni-NTA)) VHH: QVQLLESGGGLVQPGGSLRLSCAASGVNVSNEVMSWVRQAPGKGLEWVSTIANHSGSTYYADSVKGRFTISRDNSKNTLYLQMNSLRAEDTAVYYCATLYSGATKQLEYWGQGTLVTVSS | binds | binds | no binding | no binding | no binding |  |  | 
aEG1B4 displayed on phage (phage clone) (VHH, detected by anti-M13-HRP; source: E. coli TG1, phagemid pR2, rescued with M13 helper phage, phage clone) VHH: QVQLLESGGGLVQPGGSLRLSCAASGVNVSNEVMSWVRQAPGKGLEWVSTIANHSGSTYYADSVKGRFTISRDNSKNTLYLQMNSLRAEDTAVYYCATLYSGATKQLEYWGQGTLVTVSS |  |  |  |  |  | no binding | no binding | no binding
anti-EGFR single-domain antibody aEG4D9 (purified) (VHH, fully human VH domain on the V3-23/D47 framework with diversified CDR1-3; Fully human VH-only single-domain antibody (about 15 kDa), selected from the Source BioScience human domain antibody library; subcloned NcoI/NotI into pET22b(+); also called anti-EGFR sdAb; source: E. coli BL21 (DE3), pET22b(+), purified (Ni-NTA)) VHH: QVQLLESGGGLVQPGGSLRLSCAASGDMLSPDNMTWVRQAPGKGLEWVSTIHKTDGSTYYADSVKGRFTISRDNSKNTLYLQMNSLRAEDTAVYYCAGLRSRGLSSKYLEYWGQGTLVTVSS | binds | binds | no binding | no binding | no binding |  |  | 
aEG4D9 displayed on phage (phage clone) (VHH, detected by anti-M13-HRP; source: E. coli TG1, phagemid pR2, rescued with M13 helper phage, phage clone) VHH: QVQLLESGGGLVQPGGSLRLSCAASGDMLSPDNMTWVRQAPGKGLEWVSTIHKTDGSTYYADSVKGRFTISRDNSKNTLYLQMNSLRAEDTAVYYCAGLRSRGLSSKYLEYWGQGTLVTVSS |  |  |  |  |  | no binding | no binding | no binding
